# Molecular target: the molecule itself
# Experiment: FRET or BRET; spectrum-based periplasmic FRET (mNG donor, mCh acceptor, spectral unmixing, acceptor FRET efficiency EfA) in E. coli grown in Gb1 at 28°C, induced with 15 µM IPTG, fixed with 2.8% formaldehyde and 0.04% glutaraldehyde, measured in PBS in a spectrofluorimeter; where indicated cells treated with 2 µg/ml amdinocillin or 1 µg/ml aztreonam during induction; cut-off for interaction EfA above 1.4%
row,Protein,EfA (acceptor FRET efficiency)
1,"PBP5 (D,D-carboxypeptidase, dacA), fluorescent-protein fusions mNG-PBP5 and mCh-PBP5 (enzyme, Escherichia coli, UniProt P0AEB2 30-403, looked up, PBP5 (dacA) of Escherichia coli; the FP is fused to the N terminus; construct details in Text S7 and S8; One molecule for the two differently tagged copies (mNG-PBP5 and mCh-PBP5), each chain carrying only one of the two fluorescent proteins; PDB 5J8X is a soluble form that lacks the C-terminal helix; also called FP-PBP5; source: E. coli, expressed from plasmid pSAV057 or pTHV037 (15 µM IPTG), in …) DDLNIKTMIPGVPQIDAESYILIDYNSGKVLAEQNADVRRDPASLTKMMTSYVIGQAMKAGKFKETDLVTIGNDAWATGNPVFKGSSLMFLKPGMQVPVSQLIRGINLQSGNDACVAMADFAAGSQDAFVGLMNSYVNALGLKNTHFQTVHGLDADGQYSSARDMALIGQALIRDVPNEYSIYKEKEFTFNGIRQLNRNGLLWDNSLNVDGIKTGHTDKAGYNLVASATEGQMRLISAVMGGRTFKGREAESKKLLTWGFRFFETVNPLKVGKEFASEPVWFGDSDRASLGVDKDVYLTIPRGRMKDLKASYVLNSSELHAPLQKNQVVGTINFQLDGKTIEQRPLVVLQEIPEGNFFGKIIDYIKLMFHHWFG",2%
2,"PBP5^S44G active-site mutant, fusions mNG-PBP5^S44G and mCh-PBP5^S44G (enzyme, Escherichia coli, UniProt P0AEB2 30-403, looked up, PBP5 (dacA) of Escherichia coli with the active-site change of Ser to Gly at position 44; One molecule for the two differently tagged copies; also called FP-PBP5^S44G; source: E. coli ΔdacA strain, expressed from plasmids pSAV057 and pTHV037, in the periplasm of fixed cells; not shown: mNeonGreen (donor copy) or mCherry (acceptor copy), N-terminal, kept) DDLNIKTMIPGVPQIDAESYILIDYNSGKVLAEQNADVRRDPAGLTKMMTSYVIGQAMKAGKFKETDLVTIGNDAWATGNPVFKGSSLMFLKPGMQVPVSQLIRGINLQSGNDACVAMADFAAGSQDAFVGLMNSYVNALGLKNTHFQTVHGLDADGQYSSARDMALIGQALIRDVPNEYSIYKEKEFTFNGIRQLNRNGLLWDNSLNVDGIKTGHTDKAGYNLVASATEGQMRLISAVMGGRTFKGREAESKKLLTWGFRFFETVNPLKVGKEFASEPVWFGDSDRASLGVDKDVYLTIPRGRMKDLKASYVLNSSELHAPLQKNQVVGTINFQLDGKTIEQRPLVVLQEIPEGNFFGKIIDYIKLMFHHWFG",5.4%
3,"PBP6a (D,D-carboxypeptidase, dacC), fusions mNG-PBP6a and mCh-PBP6a (enzyme, Escherichia coli, UniProt P08506 28-400, looked up, PBP6a (dacC) of Escherichia coli; construct details in Text S7 and S8; One molecule for the two differently tagged copies; also called FP-PBP6a; source: E. coli, expressed from plasmids pSAV057 and pTHV037 (15 µM IPTG), in the periplasm of fixed cells; not shown: mNeonGreen (donor copy) or mCherry (acceptor copy), N-terminal, kept) AEQTVEAPSVDARAWILMDYASGKVLAEGNADEKLDPASLTKIMTSYVVGQALKADKIKLTDMVTVGKDAWATGNPALRGSSVMFLKPGDQVSVADLNKGVIIQSGNDACIALADYVAGSQESFIGLMNGYAKKLGLTNTTFQTVHGLDAPGQFSTARDMALLGKALIHDVPEEYAIHKEKEFTFNKIRQPNRNRLLWSSNLNVDGMKTGTTAGAGYNLVASATQGDMRLISVVLGAKTDRIRFNESEKLLTWGFRFFETVTPIKPDATFVTQRVWFGDKSEVNLGAGEAGSVTIPRGQLKNLKASYTLTEPQLTAPLKKGQVVGTIDFQLNGKSIEQRPLIVMENVEEGGFFGRVWDFVMMKFHQWFGSWFS",3.2%
4,"PBP6a^S66G active-site mutant, fusions mNG-PBP6a^S66G and mCh-PBP6a^S66G (enzyme, Escherichia coli, UniProt P08506 28-400, looked up, PBP6a (dacC) of Escherichia coli with the active-site serine 66 changed to glycine; One molecule for the two differently tagged copies; source: E. coli, expressed from plasmids pSAV057 and pTHV037, in the periplasm of fixed cells; not shown: mNeonGreen (donor copy) or mCherry (acceptor copy), N-terminal, kept) AEQTVEAPSVDARAWILMDYASGKVLAEGNADEKLDPAGLTKIMTSYVVGQALKADKIKLTDMVTVGKDAWATGNPALRGSSVMFLKPGDQVSVADLNKGVIIQSGNDACIALADYVAGSQESFIGLMNGYAKKLGLTNTTFQTVHGLDAPGQFSTARDMALLGKALIHDVPEEYAIHKEKEFTFNKIRQPNRNRLLWSSNLNVDGMKTGTTAGAGYNLVASATQGDMRLISVVLGAKTDRIRFNESEKLLTWGFRFFETVTPIKPDATFVTQRVWFGDKSEVNLGAGEAGSVTIPRGQLKNLKASYTLTEPQLTAPLKKGQVVGTIDFQLNGKSIEQRPLIVMENVEEGGFFGRVWDFVMMKFHQWFGSWFS",3.8%
5,"PBP6b^S63G active-site mutant, fusions mNG-PBP6b^S63G and mCh-PBP6b^S63G (enzyme, Escherichia coli, UniProt P33013 22-388, looked up, PBP6b (dacD) of Escherichia coli with the active-site serine 63 changed to glycine; One molecule for the two differently tagged copies; source: E. coli, expressed from plasmids pSAV057 and pTHV037, in the periplasm of fixed cells; not shown: mNeonGreen (donor copy) or mCherry (acceptor copy), N-terminal, kept) AENIPFSPQPPEIHAGSWVLMDYTTGQILTAGNEHQQRNPAGLTKLMTGYVVDRAIDSHRITPDDIVTVGRDAWAKDNPVFVGSSLMFLKEGDRVSVRDLSRGLIVDSGNDACVALADYIAGGQRQFVEMMNNYAEKLHLKDTHFETVHGLDAPGQHSSAYDLAVLSRAIIHGEPEFYHMYSEKSLTWNGITQQNRNGLLWDKTMNVDGLKTGHTSGAGFNLIASAVDGQRRLIAVVMGADSAKGREEEARKLLRWGQQNFTTVQILHRGKKVGTERIWYGDKENIDLGTEQEFWMVLPKAEIPHIKAKYTLDGKELTAPISAHQRVGEIELYDRDKQVAHWPLVTLESVGEGSMFSRLSDYFHHKA",2%
